The text below walks through data of patent publication US20080160035A1 (Regeneron, published 2008).

Changes are numbered by the printed parent chain.

T1: monomeric hIL-4R (R&D Systems) (human, UniProt P24394 26-231)
T1 construct: Bought (R&D Systems); also called hIL-4R monomer
T1 sequence: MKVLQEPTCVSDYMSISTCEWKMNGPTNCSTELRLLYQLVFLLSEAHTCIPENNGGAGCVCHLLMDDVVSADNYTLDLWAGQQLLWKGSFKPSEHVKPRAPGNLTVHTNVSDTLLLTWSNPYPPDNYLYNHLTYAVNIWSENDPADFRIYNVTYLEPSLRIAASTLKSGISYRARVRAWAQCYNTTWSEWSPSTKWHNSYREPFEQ

T2: dimeric hIL-4R-hFc (human, UniProt P24394 26-232)
T2 construct: also called hIL-4R-Fc; not shown: human Fc (hFc)
T2 sequence: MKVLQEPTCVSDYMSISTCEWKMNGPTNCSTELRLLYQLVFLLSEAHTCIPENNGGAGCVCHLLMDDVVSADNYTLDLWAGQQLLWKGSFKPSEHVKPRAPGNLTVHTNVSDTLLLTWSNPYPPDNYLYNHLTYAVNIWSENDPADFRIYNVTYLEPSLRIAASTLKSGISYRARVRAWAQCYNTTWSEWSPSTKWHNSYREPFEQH

T3: hIL-4R (human, UniProt P24394 26-232)
T3 construct: also called human IL-4 receptor; antigen
T3 sequence (looked up): T2 sequence

T4: hIL-4R on cells (STAT6-transfected HEK293, TF1, TF1/A12) (human, UniProt P24394 26-825)
T4 sequence (looked up): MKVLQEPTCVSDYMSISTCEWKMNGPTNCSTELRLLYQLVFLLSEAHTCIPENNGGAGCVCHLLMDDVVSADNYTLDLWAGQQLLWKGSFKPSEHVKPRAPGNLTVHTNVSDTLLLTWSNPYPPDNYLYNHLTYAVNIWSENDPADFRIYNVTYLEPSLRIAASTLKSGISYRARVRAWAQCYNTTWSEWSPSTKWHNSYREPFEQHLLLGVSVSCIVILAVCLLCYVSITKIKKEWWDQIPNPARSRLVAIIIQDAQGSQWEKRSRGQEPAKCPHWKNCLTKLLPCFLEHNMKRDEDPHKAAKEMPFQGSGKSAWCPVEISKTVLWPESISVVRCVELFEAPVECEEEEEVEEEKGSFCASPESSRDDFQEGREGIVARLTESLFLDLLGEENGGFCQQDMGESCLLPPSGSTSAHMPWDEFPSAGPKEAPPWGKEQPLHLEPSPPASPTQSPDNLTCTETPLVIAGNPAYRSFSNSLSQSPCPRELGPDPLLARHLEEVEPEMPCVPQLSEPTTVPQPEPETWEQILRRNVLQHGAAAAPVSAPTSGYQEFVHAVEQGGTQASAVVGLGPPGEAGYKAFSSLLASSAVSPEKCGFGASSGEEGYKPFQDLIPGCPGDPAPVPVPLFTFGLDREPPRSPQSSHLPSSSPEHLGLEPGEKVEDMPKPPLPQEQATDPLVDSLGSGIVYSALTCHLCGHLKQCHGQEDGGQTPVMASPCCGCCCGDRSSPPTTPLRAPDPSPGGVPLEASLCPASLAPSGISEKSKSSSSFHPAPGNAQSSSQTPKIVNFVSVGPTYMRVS

T5: mouse IL-4R (mouse, UniProt P16382 26-233, limits assumed)
T5 sequence (looked up): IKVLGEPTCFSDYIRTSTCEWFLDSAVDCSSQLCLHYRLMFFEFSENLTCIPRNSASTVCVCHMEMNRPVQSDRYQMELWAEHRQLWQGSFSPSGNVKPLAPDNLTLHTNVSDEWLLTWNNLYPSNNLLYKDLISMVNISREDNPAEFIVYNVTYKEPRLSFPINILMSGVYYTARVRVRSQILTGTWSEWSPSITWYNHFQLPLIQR

B1: VAK9C6-11 (antibody, V domains shown)
VH: QVQLVESGGGVVQPGRSLRLSCAASGFTFSSYGMHWVRQAPGKGLEWVTVISYDGSIKYYVDSVKGRFTISRDNSKNTLFLQMNSLRVEDTAVYYCAKEGRKYGMDVWGQGTTVTVSS
VL: DIQMTQSPSTLSASVGDRVTITCRASQIISSLLVWYQQKPGKAPKLLIYKASSLESGVPSRFSGSGSGTEFTLTISSLQPDDFATYYCQQYHSYMYTFGQGTKLEIK
notes: Apparently tested with mouse constant region (anti-mouse IgG capture/detection)
B2: VAK12B11-9 (antibody, V domains shown)
VH: QVQLVESGGGVVQPGRSLRLSCAASGFTFSSYAMYWVRQAPGKGLEWVAVISYDGSNKYYTDSVKGRFTVSRDNSKNTLFLQMNSLRAEDTALYYCAKESSSYGLDVWGQGTTVTVSS
VL: B1 VL with T20A, I28S, S31N, L32W, V34A, Y49S, E55K, T85A, H92N, M95S
notes: as for B1
B3: VAK11D4-1 (antibody, V domains shown)
VH: QVRLVESGGGVVQPGRSLRLSCVASGFTFRSYGMHWVRQAPGRGLEWVAVISYDGSQTFYVDSVKVRFTISRDNSNNTLYLEMNSLRVDDTAVYFCVKEGRSGSWFDPWGQGTLVAVSS
VL: DIHMTQSPSSLSASVGDRVTITCRASQAINNYLAWFQQKPGRTPKSLIFATSSLQSGVPSRFSGSGSGTDFTLTISSLQPEDFATYYCQQYNSHPWTFGQGTKVEIK
notes: as for B1
B4: VAK10G6-7 (antibody, V domains shown)
VH: QVQLVESGGGVVQPGRSLRLSCTASGFTFSSFGMHWVRQAPGRGLEWVAVISYDGSKKYYADSVKVRFTISRDNSKNTLYLQMNSLRVDDTAVYFCAKEGRTGNWFDPWGQGTLVAVSS
VL: B3 VL with H3Q, R42K, S65T, K107R
notes: as for B1
B5: VAK10G12-5 (antibody, V domains shown)
VH: B4 VH with R16G, T23A, F32Y, I51L, K58E, Y59F, I70V, N84S, D89E, V93I
VL: B3 VL with H3Q, Y32F, R42K, G66E
notes: as for B1
B6: VAB 7B9-3 (antibody, V domains shown)
VH: QVQLVQSGAEVKKPGASVKVSCKDSAYTFNRYGISWVRQAPGQGLEWMGWISAYTGNTVYAQKLQGRVTMTTDNSTSTAYMELRSLRSDDTAVYYCARDKSIFGVVRGFDYWGQGTLVTVSS
VL: EIVMTQSPVTLSLSPGERATLPCRASQSVSSSLAWYQQKAGQSPRLLIYGASTRATGIPARFSGSGSGTEFTLTISNLQSEDFAVYYCQQYNNWPLTFGGGTKVEIK
notes: as for B1
B7: VAB 13A1-6 (antibody, V domains shown)
VH: EVQLVESGGGLVQPGRSLRLSCAASGFTFDNYAMHWVRQAPGKGLEWVSGIRWNSGSIGYADSVKGRFTISRDNAKNSLYLQMNSLRAEDTALYYCAKEGGYSGYRPGPFFDYWGQGTLVTVSS
VL: B6 VL with V9A, L13V, P22S, S30N, S31Y, S32N, Q38H, A40P, S43A, N77S

One test has as its target T1, monomeric hIL-4R (R&D Systems). The experiment in a line: SPR (BIAcore 2000); antibody captured, monomeric hIL-4R injected.
B1: binding was characterised by a dissociation constant (Kd) of 2.05 nM and the T1/2 monomeric was determined as 0.467 h.

Turning to B2, the affinity, expressed as Kd, was 0.41 nM and the T1/2 monomeric is 2 h.

With B3, binding was put at a Kd of 0.05 nM and the T1/2 monomeric was 8 h.

Regarding B4, the Kd worked out at 0.23 nM and the T1/2 monomeric came to 2.4 h.

Take B5: binding was put at a Kd of 0.09 nM and the T1/2 monomeric amounted to 6 h.

As for B6, the Kd was found to be 1.01 nM and the T1/2 monomeric is 0.217 h.

The next test deals with T2, dimeric hIL-4R-hFc. Nature of the test: SPR (BIAcore 2000); antibody captured, dimeric hIL-4R-hFc injected.
Molecule B1 gave an equilibrium dissociation constant (Kd) of 0.068 nM and a T1/2 dimeric of 7 h.

With B2, the equilibrium dissociation constant (Kd) is 0.036 nM and the T1/2 dimeric was determined as 12 h.

B3: binding was characterised by a dissociation constant (Kd) of 0.006 nM and the T1/2 dimeric came to 21 h.

Turning to B4, binding was put at a Kd of 0.011 nM and the T1/2 dimeric is 24 h.

In turn, B5 came in with an equilibrium dissociation constant (Kd) of 0.007 nM and a T1/2 dimeric of 46 h.

Regarding B6, the dissociation constant (Kd) was determined as 0.052 nM and the T1/2 dimeric came out at 6.1 h.

In a further test the target is T2, dimeric hIL-4R-hFc. The experiment in a line: ELISA; antibody titrated against 25 pM hIL-4R-Fc, free receptor caught on hIL-4 plate.
For B1, the concentration for half-maximal inhibition (IC50) turned out to be 0.067 nM.

As for B2, the half-inhibitory concentration (IC50) stood at 0.099 nM.

The molecule B3 showed an IC50 of 0.035 nM.

As to B4, the midpoint of inhibition, the IC50, lay at 0.037 nM.

For B5, the concentration for half-maximal inhibition (IC50) is 0.059 nM.

With B6, inhibition was half-maximal at 0.059 nM (IC50).

Another test concerns the target T2, dimeric hIL-4R-hFc. The experiment in a line: SPR; reduction of hIL-4 (50 nM) binding to captured hIL-4R-hFc after antibody; competitor hIL-4. The source says: Purified hIL-4R-hFc molecules were captured by goat anti-human IgG polyclonal antibody immobilized on CM-5 to a density of 260 RU, to prepare a receptor-coated surface.
As for B1, the “% Inhibition (BIAcore)” value was found to be 96%.

With B2, the “% Inhibition (BIAcore)” value worked out at 96%.

In the case of B3, the “% Inhibition (BIAcore)” value is 95%.

As for B4, the “% Inhibition (BIAcore)” value was found to be 95%.

For the molecule B5, the “% Inhibition (BIAcore)” value is 94%.

B6: the “% Inhibition (BIAcore)” value was found to be 96%.

A further test addresses T3, hIL-4R. The experiment in a line: screen of hybridoma conditioned media.
For B7, the binding result is reported as “binds”.

In another test the target is T4, hIL-4R on cells (STAT6-transfected …). The experiment in a line: cell-based or functional assay.
With B1, the “STAT6 Bioassay IC50 (HEK293 STAT6 luciferase, 10 pM hIL-4)” value worked out at 0.48 nM and the “TF1 Bioassay IC50 (proliferation, 50 pM hIL-4)” value was found to be 0.31 nM.

With B2, the “STAT6 Bioassay IC50 (HEK293 STAT6 luciferase, 10 pM hIL-4)” value is 0.49 nM and the “TF1 Bioassay IC50 (proliferation, 50 pM hIL-4)” value was 0.57 nM.

For the molecule B3, the “STAT6 Bioassay IC50 (HEK293 STAT6 luciferase, 10 pM hIL-4)” value was determined as 0.2 nM and the “TF1 Bioassay IC50 (proliferation, 50 pM hIL-4)” value turned out to be 0.2 nM.

B4: the “STAT6 Bioassay IC50 (HEK293 STAT6 luciferase, 10 pM hIL-4)” value came out at 0.11 nM and the “TF1 Bioassay IC50 (proliferation, 50 pM hIL-4)” value worked out at 0.23 nM.

On to B5, for which the “STAT6 Bioassay IC50 (HEK293 STAT6 luciferase, 10 pM hIL-4)” value came out at 0.36 nM and the “TF1 Bioassay IC50 (proliferation, 50 pM hIL-4)” value turned out to be 0.58 nM.

Take B6: the “STAT6 Bioassay IC50 (HEK293 STAT6 luciferase, 10 pM hIL-4)” value was found to be 3.4 nM and the “TF1/A12 Bioassay IC50 (proliferation, 20 pM hIL-4)” value amounted to 8.2 nM.

For the next test the target is unchanged. Nature of the test: cell-based or functional assay. The source holds these as a separate data set.
With B1, the “STAT6 Bioassay IC50 (HEK293 STAT6 luciferase, 40 pM hIL-13)” value is 0.3 nM and the “TF1 Bioassay IC50 (proliferation, 150 pM hIL-13)” value came out at 1 nM.

B2: the “STAT6 Bioassay IC50 (HEK293 STAT6 luciferase, 40 pM hIL-13)” value came to 0.37 nM and the “TF1 Bioassay IC50 (proliferation, 150 pM hIL-13)” value is 1.6 nM.

Take B3: the “STAT6 Bioassay IC50 (HEK293 STAT6 luciferase, 40 pM hIL-13)” value was 0.14 nM and the “TF1 Bioassay IC50 (proliferation, 150 pM hIL-13)” value was determined as 0.44 nM.

On to B4, for which the “STAT6 Bioassay IC50 (HEK293 STAT6 luciferase, 40 pM hIL-13)” value is 0.07 nM and the “TF1 Bioassay IC50 (proliferation, 150 pM hIL-13)” value worked out at 0.46 nM.

B5: the “STAT6 Bioassay IC50 (HEK293 STAT6 luciferase, 40 pM hIL-13)” value is 0.26 nM and the “TF1 Bioassay IC50 (proliferation, 150 pM hIL-13)” value came out at 1.9 nM.

Regarding B6, the “STAT6 Bioassay IC50 (HEK293 STAT6 luciferase, 40 pM hIL-13)” value was determined as 1.1 nM.

A further test deals with T5, mouse IL-4R. The experiment in a line: binding affinity test of Example 2 (method not restated).
For the molecule B1, the binding result is “no binding”.

Turning to B2, the binding result is given as “no binding”.

Regarding B3, the binding result is “no binding”.

With B4, the binding result is “no binding”.

Take B5: the binding result is “no binding”.

With B6, the binding result is recorded as “no binding”.
